Data from the nanobody polyreactivity screen of Harvey et al. (2022).

Experiment: yeast display, Sf9 membrane polyspecificity reagent, FACS + sequencing; frameworks hold sequencing errors
Method in brief: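 Nanobodies from a synthetic yeast display library (Saccharomyces cerevisiae BJ5465), induced 36–48 hours with galactose, were stained 1 hour at 4 °C with 10% biotinylated, detergent-solubilized Sf9 membrane reagent, enriched on streptavidin microbeads, then FACS-sorted. Anti-HA (expression) and streptavidin (reagent binding) fluorescence set low and high (top ~1%) gates. Polyreactivity labels come from the gate of origin. Genes were colony-PCR amplified, MiSeq 2 × 250 sequenced and filtered by CDR length.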

Sequence | polyreactivity (PSR sort gate)
QVQLVESGGGLVQAGGSLRLSCAASGLTFVKNVMGWYRQAPGKERELVAAISRRGGSTYSADSVKGRFTISRDNAKNTVYLQMNSLQPADTAVYYCAARTPSPTRPQYYYWGQGTQVTVSS | high polyreactivity
QVQLVESGGGLVQAGGSLRLSCAASGLTFVLYAMGWYRQAPGKERELVAAISKRGGSTNYADSVKGRFTISRDIAKNTVYLQMNSLKPEDTAVYYCAARYPQGGTGKATYVRSRSGYWGQGTKVTVSS | high polyreactivity
QVQLVESGGGLVQAGGSLRLSCAASGLTFVLYAMGWYRQAPGQERELVAAISKRGGSTNYADSVKGRFTISRDNAKNTVYLQMNSLKPADTAVYYCAPRYPQGGTGKATYVRSRSGYWGQGTQVTVSS | high polyreactivity
QVQLVESGGGLVQAGGSLRLSCAASGLTFVPNAMGWYRQAPGKERELFAAISNNGGRTYYADSVKGRFTISRDNAKNTVYLQMNSLKPEDTAVYYCANYLSPGERHSYDYWGQGTKVTVSS | high polyreactivity
QVQLVESGGGLVQAGGSLRLSCAASGLTFVRYTMGWYRQAPGKERELVADISSVGSTYYADSVKGRFTISRDNAKNTVYLQMNSLKPQDTAVYYCNTSYIIWYDSWGQGTQVTVSS | low polyreactivity
QVQLVESGGGLVQAGGSLRLSCAASGLTFVWYAMGWYIQAPGKERELVAGITSGGRTYYADSVKGRFTISRDNAKNTVYLQMISLKPEDTGVYDCNAVVRWGYGYDYWGQGTQVTVSS | high polyreactivity
QVQLVESGGGLVQAGGSLRLSCAASGLTFVWYAMGWYRQAPGKERELVAAIRGGGSTYYADSVKGRFTISRDNAKNTVYLQMNSLKPEDTAVYYCNARYYGAHSPYRFDYWGQGTQVTVSS | high polyreactivity
QVQLVESGGGLVQAGGSLRLSCAASGLTFVWYGKGWYRQATGKERELVAAITRGGSTYYADSVKGRFTISRDNAKNTVYLQMKSLKPEDTAVYYCAARRLERRVRPGYYPYDYWVQGTQVTVSS | high polyreactivity
QVQLVESGGGLVQAGGSLRLSCAASGLTFVWYGMGWYRQAPGKERELVAAITRGGSTYYADSVKGRFTISRDNAKNTVYLQMNSLKPEDTAVYYCAARYKYTGYDYWGQGTQVTVSS | high polyreactivity
QVQLVESGGGLVQAGGSLRLSCAASGLTFVWYSMGWYRHAPGKERELVAGITSGGRTYYADSVKGRFTISRDNAKNTVYLQMNRLKPEDTAVYYCAAYGNYNEYDSWGQGTQVSVSS | high polyreactivity
QVQLVESGGGLVQAGGSLRLSCAASGLTFVYNAMGWYRQATGKERELVAAISRVGSTNYADSVKGRFTISRDNAKYTVYLQLNSLKPADTAVYYCNKGNAYVVYTSGYDYWGQGTQVTVSS | low polyreactivity
QVQLVESGGGLVQAGGSLRLSCAASGLTFVYYVLGWYRQAPGKESELVAAITDGGSTYYADSVKGRFTISRDNAKNTVYLQMNSRKPEDTAVYYCAADYYWLYGRWGVDYWGQGTQVTVSS | high polyreactivity
QVQLVESGGGLVQAGGSLRLSCAASGLTFWANTMGWYRQAPGKERELVAAITWSGGSTYYADSVKGRFTISRDNAKNTFYLQMNSLKPEDNAVYYCAAEEFFSAGYSYYYWGQGTQVTVSS | low polyreactivity
QVQLVESGGGLVQAGGSLRLSCAASGLTFWAYAMGWYRQEPGKEREFVAAISWSVDSTYYADSVKGRFTISRDNAKNTVYLQMNSLKPEDTAVYYCAAEWYYVYIAPYRYYYRGQGTQVTVSS | low polyreactivity
QVQLVESGGGLVQAGGSLRLSCAASGLTFWFNAMGWYRQAHGKEREFVAAISLSSTYYADSVKGRFTISRDNAKNTVYLQMNSLKPEDTAVYYCAAELSVSLYDFDYWGQGTQETVSS | high polyreactivity
QVQLVESGGGLVQAGGSLRLSCAASGLTFWPYAMGWYRQAPGKERELVAAISSSGRTYYADSVKGRFTISRDNAKNTVYLQMNSLKPEDTAVYYCARRFWFHYYGYDYWGQGTQVTVSS | high polyreactivity

Sequence | polyreactivity (PSR sort gate)
QVQLVESGGGLVQAGGSLRLSCAASGLTFWRYAMGWYRQAPGKERELVAGISSSTGSTYYADSVKGRFTISRDNAKNTVYLQMNSLKPEDTAVYYCNAYVRRIVRSYYWGQGTQVTVSS | high polyreactivity
QVQLVESGGGLVQAGGSLRLSCAASGLTFWYYAMGWYRQAPGKERELVAAIDWSGASTYYADSVKGRFTISRDNAKNTVYLQMYSLKPEDTAVYYCNTVYYIGDDYWGQGTQVTVSS | high polyreactivity
QVQLVESGGGLVQAGGSLRLSCAASGLTFWYYDMGWYRQAPGKERELVAAISRCGGTTYYADSVKGRFTISRDNAKNSVYLQMNSLKPEDTAVYYCAAVSFGFWVTEYYYWGQGTQVNVSS | high polyreactivity
QVQLVESGGGLVQAGGSLRLSCAASGLTFYGYGMGWYRQAPGKERELVASITSGGNTYYADSVKGRFTISRDNAKNTVYLKMNSLKPEDTAVYYCAVTAIALYYSSGYYWGQGTQVTVSS | low polyreactivity
QVQLVESGGGLVQAGGSLRLSCAASGLTFYHYAMGWYRQAPGIERELVAAISYSGSRTYYADSVKGRFTISRDTAKNTVYLQMNSLKPEVTAVYYCAAKRTKEYDYWGQGTQVTVSS | high polyreactivity
QVQLVESGGGLVQAGGSLRLSCAASGLTFYHYHMGWYRQAPGKERELVAAITIGGSTYYADSVKGRFTISRDNAKNTVYLQMNSLKPEDTEVYYCAAEPQRDSSGLDYWGQGTQVTVSS | low polyreactivity
QVQLVESGGGLVQAGGSLRLSCAASGLTFYIYAMGWSRQAPGKERELVAGISWIGGRTYYADSVKGRFTISRDNAKNTVYLQLNSLKPEDTAVYYCIAYLSYTSRGRYYKYDYWGQGTQVTVSS | high polyreactivity
QVQLVESGGGLVQAGGSLRLSCAASGLTFYIYAMGWYRQAPGKEREFVAAIRRSDARTYYADSVKGRFTISRDNAKNTVYLQMNSLKPEDTAVYYCARPPWFTGYNSGYWGQGTQVTVSS | high polyreactivity
QVQLVESGGGLVQAGGSLRLSCAASGLTFYIYAMGWYSQAPGKERELVAAVSNGGGNTYYADSVKGRCTISRDNAKNTVYLQMNSLKPEDTAVYYCAAKNDYVYPINPLYYYWGQGTQVTVSS | high polyreactivity
QVQLVESGGGLVQAGGSLRLSCAASGLTFYLYAMGWNRQAPGKERELVAAINSRGGNTYYADSVKGRFTISRDNAKNTVYLQMNSLKPEDTAVYYCNAGRTFYSYAYGYWGQGTQVTVSS | high polyreactivity
QVQLVESGGGLVQAGGSLRLSCAASGLTFYPNAMGWYRQAPGKEREFVASISISGRTYYADSVKGRFTISRDNAKNTVYLQMNSLKPEDTAVYYCAARYVRSGLYRKYDYWGQGTQVTVSS | high polyreactivity
QVQLVESGGGLVQAGGSLRLSCAASGLTFYQYAMGWSRQAPGKERELVAAISKSAGSTYYADSVKGRFTISRDNAKNTVYLQMNSLKPEDTAVYYCAARVLRLRYDYWGQGTQVTVSS | high polyreactivity
QVQLVESGGGLVQAGGSLRLSCAASGLTFYSNAMGWYRQAPGKERELVARISTGGSTYADSEKGRFTISRDNAKNTVYLQMNSLKPEDTSFFYCAKLPPRGIDDEYWGQGTQVTVSS | low polyreactivity
QVQLVESGGGLVQAGGSLRLSCAASGLTFYSYAMGWYRQAPGKERELVAAITSSDGSTYYADSVKGRFTISRDNAKNTVYLQMNSLKPEDTAVYYCNKDDNSYGLNYWGQGTQVTVSS | low polyreactivity
QVQLVESGGGLVQAGGSLRLSCAASGLTFYSYARGWYRQAPGKERELVATISGGGSTTYADSVKGRFTISRDNAKNTVYLQMNSLKPEDTAVYYCAAGYFLPVVWSTTNYIYDYWGQGTQVTVSS | high polyreactivity
QVQLVESGGGLVQAGGSLRLSCAASGLTFYTYAMGWYRQAPGKERELVAAISTNGGSTYADSVKGRFTISRDNAKNTVYLQMNSLKPEDTAVYYCAAVYRTTRYGYWGQGTQVTVSS | low polyreactivity
